The assay concerns the target His6-Munc18a (rat, UniProt P61765 1-594). The assay is described as follows: pull-down.

Sequence of His6-Munc18a (P61765 whole entry): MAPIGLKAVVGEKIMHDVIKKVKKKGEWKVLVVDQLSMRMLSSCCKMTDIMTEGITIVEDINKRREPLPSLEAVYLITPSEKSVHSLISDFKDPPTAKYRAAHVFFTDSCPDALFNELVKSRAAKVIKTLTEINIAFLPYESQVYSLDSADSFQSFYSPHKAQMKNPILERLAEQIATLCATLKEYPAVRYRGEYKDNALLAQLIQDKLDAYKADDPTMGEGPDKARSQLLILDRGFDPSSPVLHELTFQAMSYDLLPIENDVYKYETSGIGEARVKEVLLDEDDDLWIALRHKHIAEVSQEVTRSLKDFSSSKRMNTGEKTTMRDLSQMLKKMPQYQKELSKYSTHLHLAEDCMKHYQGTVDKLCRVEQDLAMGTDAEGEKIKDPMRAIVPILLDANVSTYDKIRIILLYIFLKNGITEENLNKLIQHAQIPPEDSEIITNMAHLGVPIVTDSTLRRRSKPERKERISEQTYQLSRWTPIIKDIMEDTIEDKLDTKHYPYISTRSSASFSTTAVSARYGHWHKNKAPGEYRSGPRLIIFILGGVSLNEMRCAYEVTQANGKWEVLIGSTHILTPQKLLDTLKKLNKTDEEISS

B1: syntaxin3, full-length, liposome-anchored (natural protein, rat, UniProt Q08849 1-289, looked up)
chain: MKDRLEQLKAKQLTQDDDTDEVEIAIDNTAFMDEFFSEIEETRLNIDKISEHVEEAKKLYSIILSAPIPEPKTKDDLEQLTTEIKKRANNVRNKLKSMEKHIEEDEVRSSADLRIRKSQHSVLSRKFVEVMTKYNEAQVDFRERSKGRIQRQLEITGKKTTDEELEEMLESGNPAIFTSGIIDSQISKQALSEIEGRHKDIVRLESSIKELHDMFMDIAMLVENQGEMLDNIELNVMHTVDHVEKARDETKRAMKYQGQARKKLIIIIVIVVVLLGILALIIGLSVGLK
Turning to B1, the binding result is reported as “binds”.

These data come from PMC5651683 (The Biochemical journal, 2017).
